Like-named read-outs stand apart in the source and are kept apart here.
B1: Antibody A (bispecific antibody, human IgG1, kappa)
light: DIQMTQSPSSLSASLGDRVTISCSASQGISNYLNWYQQKPDGTVKLLIYYTSTLHSGVPSRFSGSGSGTDYTLTISSLQPEDIATYYCQQYSKLPWTFGGGTKLEIKRTVAAPSVFIFPPSDEQLKSGTASVVCLLNNFYPREAKVQWKVDNALQSGNSQESVTEQDSKDSTYSLSSTLTLSKADYEKHKVYACEVTHQGLSSPVTKSFNRGEC
heavy: not shown
notes: IgG1 subtype; full-length 4-1BB antibody with TNFR2 scFv at the C-terminus of the heavy chains; two identical first and two identical second peptide chains
B2: Antibody J2 (bispecific antibody, human IgG4 S228P, kappa)
light: B1 light
heavy: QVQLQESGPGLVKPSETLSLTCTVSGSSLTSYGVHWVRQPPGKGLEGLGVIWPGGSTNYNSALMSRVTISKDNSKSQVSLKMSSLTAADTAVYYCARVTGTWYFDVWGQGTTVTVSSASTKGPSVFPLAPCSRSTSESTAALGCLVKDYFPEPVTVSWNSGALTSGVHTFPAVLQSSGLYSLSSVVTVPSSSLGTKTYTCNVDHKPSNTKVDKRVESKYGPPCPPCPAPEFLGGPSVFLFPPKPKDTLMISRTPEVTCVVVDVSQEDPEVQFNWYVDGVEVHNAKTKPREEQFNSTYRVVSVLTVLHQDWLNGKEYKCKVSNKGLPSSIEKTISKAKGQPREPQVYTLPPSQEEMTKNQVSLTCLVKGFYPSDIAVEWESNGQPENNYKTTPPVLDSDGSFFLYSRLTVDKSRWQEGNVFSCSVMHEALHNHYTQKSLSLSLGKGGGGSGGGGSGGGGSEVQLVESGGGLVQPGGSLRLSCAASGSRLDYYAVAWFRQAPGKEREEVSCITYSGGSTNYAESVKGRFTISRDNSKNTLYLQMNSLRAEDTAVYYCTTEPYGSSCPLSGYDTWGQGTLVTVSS
notes: IgG4 subtype; same order as J1
B3: Antibody M2 (bispecific antibody, human IgG4 S228P, kappa)
light: B1 light
heavy: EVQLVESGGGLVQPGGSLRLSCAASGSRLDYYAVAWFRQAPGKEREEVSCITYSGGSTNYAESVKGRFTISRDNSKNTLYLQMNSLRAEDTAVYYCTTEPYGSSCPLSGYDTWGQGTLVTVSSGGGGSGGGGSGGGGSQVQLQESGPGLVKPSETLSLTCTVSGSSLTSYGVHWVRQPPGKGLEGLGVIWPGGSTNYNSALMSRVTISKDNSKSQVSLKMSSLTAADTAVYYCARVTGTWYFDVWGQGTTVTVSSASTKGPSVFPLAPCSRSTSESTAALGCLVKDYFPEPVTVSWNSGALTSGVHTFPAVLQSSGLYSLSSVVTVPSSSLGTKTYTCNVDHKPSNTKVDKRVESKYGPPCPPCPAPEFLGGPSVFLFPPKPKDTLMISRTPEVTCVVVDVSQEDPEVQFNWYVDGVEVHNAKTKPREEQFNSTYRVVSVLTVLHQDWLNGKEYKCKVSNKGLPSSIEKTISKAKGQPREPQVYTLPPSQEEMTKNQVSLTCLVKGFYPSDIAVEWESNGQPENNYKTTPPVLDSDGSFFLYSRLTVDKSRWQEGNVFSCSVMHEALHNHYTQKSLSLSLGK
notes: IgG4 subtype; same order as M1
B4: Antibody C (bispecific antibody, human IgG1, kappa)
light: B1 light
heavy: not shown
notes: IgG1 subtype; full-length 4-1BB antibody with TNFR2 scFv at the N-terminus of the heavy chains
B5: Positive control 1 (anti-TNFR2 antibody, human IgG1) (antibody, V domains shown)
VH: EVQLVQSGAEVKKPGATVKISCKVSGYSITDYLLHWVQQAPGKGLEWMGWIDPEDAKTKYGQKFQSRVTITADTSTDTAYMELSSLRSEDTAVYYCAANSGTGTMDAWGQGTLVTVSS
VL: DIVMTQSPATLSVSPGERATLSCKASQNVGSNVDWYQQKPGQSPRVLIYKASIRYTGIPARFSGSGSGTEFTLTISILQSEDFAVYFCMQSKSYPITFGQGTKLEIK

How the values were obtained:
[1] = biological target: T1, Human-TNFR2-His (human, UniProt P20333 23-257); assay: ELISA: Human-TNFR2-His coated (0.1 ug/mL), antibody titrated, goat anti-human IgG Fc detection (Example 2)
T1 construct: Bought protein; also called human TNFR2 protein; TNFR2 protein; not shown: His tag
T1 sequence (looked up): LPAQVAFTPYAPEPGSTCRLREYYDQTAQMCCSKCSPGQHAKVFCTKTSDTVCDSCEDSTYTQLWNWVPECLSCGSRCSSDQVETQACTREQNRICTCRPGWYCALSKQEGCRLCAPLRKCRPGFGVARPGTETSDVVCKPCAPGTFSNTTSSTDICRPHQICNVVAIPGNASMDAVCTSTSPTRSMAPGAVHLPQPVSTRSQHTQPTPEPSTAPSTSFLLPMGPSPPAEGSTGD
Experimental: (§1) Human-TNFR2-His (manufacturer: SINO, CAT: 10417-H08H, LOT: LC15NO0412) was diluted to 0.1 μg/mL with a coating solution (1×PBS, pH7.4), and coated in 96-well ELISA plate at 100 µL/well overnight at 4° C. The coating solution was poured off. Each well was washed with 1×PBST at 300 μL, washed 4 times with a plate washer, and patted dry on a flat paper. It was blocked with 3% skim milk powder at 300 μL/well, and incubated at 37° C. for 1 h. The blocking solution was poured off, washed 4 times with a plate washer, and patted dry on a flat paper. Negative control and positive control were set up. […] The positive control and antibody were diluted to 10 μg/mL with 3% skim milk powder as the starting concentration, and then diluted by 3-fold gradient (11 gradients in total), and a blank well was set up and only the diluent was added. It was incubated at 37° C. for 1 h at 100 μL/well. The liquid in the well was discarded, washed 4 times with a plate washer, and patted dry on a flat paper. Goat anti-human IgG Fc was diluted with 3% skim milk powder at 1:10000, and incubated at 37° C. for 1 h at 100 μL/well. It was washed 6 times with a plate washer, and patted dry on a flat paper. TMB color developing solution was added at 100 μL/well, and wrapped with aluminum foil. Color development was performed at 37° C. in the dark for 8 min. Termination solution 1M HCl was added to terminate the color development reaction at 100 μL/well. Readings were taken at 450 nm on an ELISA reader.

[2] = biological target: T2, Human 4-1BB His (human, UniProt Q07011 24-186); assay: ELISA: Human 4-1BB His coated (0.2 ug/mL), antibody titrated, goat anti-human IgG Fc detection (Example 3)
T2 construct: Bought protein; lots 198-2146F1-W6 and 2407c-214FF1-YC; also called human 4-1BB protein; 4-1BB protein; not shown: His tag
Experimental: (§2) Human 4-1BB His (manufacturer: Acro, CAT: 41B-H5258, LOT: 198-2146F1-W6) was diluted to 0.2 μg/mL with a coating solution (1×PBS, pH7.4), and coated in 96-well ELISA plate at 100 μL/well overnight at 4° C. The coating solution was poured off. Each well was washed with 1×PBST at 300 μL, washed 4 times with a plate washer, and patted dry on a flat paper. It was blocked with 3% skim milk powder at 300 μL/well, and incubated at 37° C. for 1 h. The blocking solution was poured off, washed 4 times with a plate washer, and patted dry on a flat paper. Negative control and positive control were set up. […] The variable region of the antibody sequence of the positive control consists of SEQ ID NO: 15 and SEQ ID NO: 19, with the addition of the constant region of human IgG1 (SEQ ID NO: 46 and SEQ ID NO: 47). The positive control and antibody were diluted to 10 μg/mL with 3% skim milk powder as the starting concentration, and then diluted by 3-fold gradient (11 gradients in total), and a blank well was set up and only the diluent was added. It was incubated at 37° C. for 1 h at 100 μL/well. The liquid in the well was discarded, washed 4 times with a plate washer, and patted dry on a flat paper. Goat anti-human IgG Fc was diluted with 3% skim milk powder at 1:20000, and incubated at 37° C. for 1 h at 100 μL/well. It was washed 6 times with a plate washer, and patted dry on a flat paper. TMB color developing solution was added at 100 μL/well, and wrapped with aluminum foil. Color development was performed at 37° C. in the dark for 8 min. Termination solution 1M HCl was added to terminate the color development reaction at 100 μL/well. Readings were taken at 450 nm on an ELISA reader.

[3] = biological target: T3, Human 4-1BB Fc (human, UniProt Q07011 24-186); assay: bridging ELISA: Human 4-1BB Fc coated (0.3 ug/mL), antibody titrated, then Human-TNFR2-His (0.3 ug/mL), HRP anti-His detection (Example 4)
T3 construct: same catalogue and lot number as Human 4-1BB His; not shown: Fc
Experimental: Human 4-1BB Fc (manufacturer: Acro, CAT: 41B-H5258, LOT: 198-2146F1-W6) was diluted to 0.3 μg/mL with a coating solution (1×PBS, pH7.4) and coated into a 96-well ELISA plate at 100 µL/well at 4° C. overnight. The coating solution was poured off. Each well was washed with 1×PBST at 300 μL, washed 4 times with a plate washer, and patted dry on a flat sheet. It was blocked with 3% skim milk powder at 300 μL/well, and incubated at 37° C. for 1 h. The blocking solution was poured off, washed 4 times with a plate washer, and patted dry on a flat sheet. […] Starting at 50 nM, which was used as the initial concentration for 3-fold dilution, a total of 10 gradients were diluted, and a blank well was set up and only the diluent was added. It was incubated at 37° C. for 1 h at 100 μL/well. The liquid in the well was discarded, washed 4 times with a plate washer, and patted dry on a flat paper. Human-TNFR2-His (manufacturer: Sino, CAT: 10417-H08H, LOT: LC15NO0412) was diluted to 0.3 μg/mL, 100 μL was added to each well, and incubated at room temperature for 1 h. The plate was washed 3 times with PBST, and then the HRP-labeled his antibody was diluted with sample diluent at 1:5000, 100 μ L was added to each well, and incubated at room temperature for 1 h. It was washed 6 times with a plate washer, and patted dry on a flat paper. TMB color developing solution was added at 100 μL/well, and wrapped with aluminum foil. Color development was performed at 37° C. in the dark for 8 min. Termination solution 1M HCl was added to terminate the color development reaction at 100 μL/well. Readings were taken at 450 nm on an ELISA reader.

[4] = biological target: T4, Human TNFR2 mFc (human, UniProt P20333 23-257); assay: bridging ELISA: Human TNFR2 mFc coated (0.3 ug/mL), antibody titrated, then Human 4-1BB His (0.3 ug/mL), HRP anti-His detection (Example 5)
T4 construct: Bought protein; not shown: mFc
T4 sequence (looked up): T1 sequence (looked up)
Experimental: Human TNFR2 mFc (manufacturer: Kaixia, CAT: TN-HM3R2, LOT: 031202) was diluted to 0.3 μg/mL with a coating solution (1×PBS, pH7.4) and coated into a 96-well ELISA plate at 100 μL/well at 4° C. overnight. The coating solution was poured off. Each well was washed with 1×PBST at 300 μL, washed 4 times with a plate washer, and patted dry on a flat paper. It was blocked with 3% skim milk powder at 300 μL/well, and incubated at 37° C. for 1 h. The blocking solution was poured off, washed 4 times with a plate washer, and patted dry on a flat paper. […] Starting at 50 nM, which was used as the initial concentration for 3-fold dilution, a total of 10 gradients were diluted, and a blank well was set up and only the diluent was added. It was incubated at 37° C. for 1 h at 100 µL/well. The liquid in the well was discarded, washed 4 times with a plate washer, and patted dry on a flat paper. Human 4-1BB His (manufacturer: Acro, CAT: 41B-H5258, LOT: 198-2146F1-W6) was diluted to 0.3 μg/mL, 100 μL was added to each well, and incubated at room temperature for 1 h. The plate was washed 3 times with PBST, and then the HRP-labeled his antibody was diluted with sample diluent at 1:5000, 100 μ L was added to each well, and incubated at room temperature for 1 h. It was washed 6 times with a plate washer, and patted dry on a flat paper. TMB color developing solution was added at 100 μL/well, and wrapped with aluminum foil. Color development was performed at 37° C. in the dark for 8 min. Termination solution 1M HCl was added to terminate the color development reaction at 100 μL/well. Readings were taken at 450 nm on an ELISA reader.

[5] = biological target: T2, Human 4-1BB His; assay: ELISA: Human 4-1BB His coated (0.2 ug/mL), antibody titrated, goat anti-human IgG Fc detection (Example 3); remark: listed apart in the source
Experimental: as §2

[6] = biological target: T1, Human-TNFR2-His; assay: ELISA: Human-TNFR2-His coated (0.1 ug/mL), antibody titrated, goat anti-human IgG Fc detection (Example 2); remark: listed apart in the source
Experimental: as §1

[7] = biological target: T1, Human-TNFR2-His; assay: BLI, antibody on AHC sensor, 100 nM TNFR2-His in solution
Experimental: The AHC sensor was soaked in 0.02% PBST (0.02% Tween 20, pH 7.4, 1×PBS) as a buffer for 600 s to remove the sucrose covering the sensor surface. The AHC sensor was equilibrated with 0.02% PBST (0.02% Tween 20, pH 7.4, 1×PBS) as a buffer for 60 s, the antibody in the sample plate was solidified for 300 s, and the secondary equilibration buffer was used for 180 s. 100 nM human-TNFR2-His (manufacturer: SINO, CAT: 10417-H08H, LOT: LC15NO0412) protein was bound to the antibody for 300 s and then dissociated for 600 s. After dissociation, 10 mM glycine (pH 2.0) was used as a regeneration buffer for 30 s. The sensor was regenerated with 10 mM glycine (pH 2.0).

[8] = biological target: T1, Human-TNFR2-His; assay: ELISA: Human-TNFR2-His coated (0.1 ug/mL), antibody titrated, goat anti-human IgG Fc detection (Example 2); remark: listed apart in the source
Experimental: as §1

[9] = biological target: T1, Human-TNFR2-His; assay: as above; remark: listed apart in the source
Experimental: as §1

[10] = biological target: T1, Human-TNFR2-His; assay: as above; remark: listed apart in the source
Experimental: as §1

T2 sequence (Q07011 24-186 limits assumed): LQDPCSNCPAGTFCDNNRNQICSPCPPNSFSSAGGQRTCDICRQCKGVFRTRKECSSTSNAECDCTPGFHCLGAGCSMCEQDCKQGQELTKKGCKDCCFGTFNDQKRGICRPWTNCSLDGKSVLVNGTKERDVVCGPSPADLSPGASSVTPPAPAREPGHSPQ
T3 sequence (Q07011 24-186 limits assumed): as above

Binder	EC50 (read off the curve) [1] [nM]	EC50 (read off the curve) [2] [nM]	EC50 (read off the curve) [3] [nM]	EC50 (read off the curve) [4] [nM]	EC50 (read off the curve) [6] [nM]	further results
B1	~0.4	~0.2	~0.5	~0.2		
B2					~0.2	EC50 (read off the curve) [5]: ~0.2 nM
B3					~0.1	
B4	~0.06	~0.1	~0.5	~0.2		
B5	~0.03					Kd [7]: 0.0724 nM; koff [7]: 1.86e-05 s⁻¹; kon [7]: 257000 M⁻¹ s⁻¹; EC50 (read off the curve) [8]: ~0.03 nM; EC50 (read off the curve) [9]: ~0.03 nM; EC50 (read off the curve) [10]: ~0.03 nM

— US20260049151A1 (SHENGHE CHINA BIOPHARMACEUTICAL, published 2026)
